± gives the uncertainty stated by the source.
B1: Retinoic acid receptor beta, residues 85 to 161; numbered along this chain, P10826 (parent)
chain: YKPCFVCQDKSSGYHYGVSACEGCKGFFRRSIQKNMIYTCHRDKNCVINKVTRNRCQYCRLQKCFEVGMSKESVRND

Variants of: B1
Assay: abundance fitness (aPCA) (normalised: wild type 0, dead -1); higher = more abundant; growth selection in yeast, the domain comes from the species named
Settings: Homo sapiens

Variant	abundance fitness
YKPCFVCQDKSSGYHYGVSACEGCKGFFRRSIQKNMIYTCHRDKNCVINKVTRNRCQYCRMQKCFEVGMSKESVRND [L61M]	-0.023 ± 0.045
YKPCFVCQDKSSGYHYGVSACEGCKGFFRRSIQKNMIYTCHRDKNCVINKVTRNRCQYCRDQKCFEVGMSKESVRND [L61D]	-0.516 ± 0.14
YKPCFVCQDKSSGYHYGVSACEGCKGFFRRSIQKNMIYTCHRDKNCVINKVTRNRCQYCREQKCFEVGMSKESVRND [L61E]	-0.635 ± 0.083
YKPCFVCQDASSGYHYGVSACEGCKGFFRRSIQKNMIYTCHRDKNCVINKVTRNRCQYCRLQKCFEVGMSKESVRND [K10A]	0.147 ± 0.05
YKPCFVCQDKSSGYHYGVSACEGCKGFFRRSIQKNMIYTCHRDKNCVINKVTRNRCQYCRLQKQFEVGMSKESVRND [C64Q]	-0.426 ± 0.1
YKPCFVCQDKSSGYHYGVSACEGCKGFFRRSIQKNMIYTCHRDKNCVINKVTRNRCQYCRLQKSFEVGMSKESVRND [C64S]	-0.461 ± 0.06
YKPCFVCQDKSSGYHYGVSAKEGCKGFFRRSIQKNMIYTCHRDKNCVINKVTRNRCQYCRLQKCFEVGMSKESVRND [C21K]	-0.91 ± 0.2
YKPCFVCQDKSSGYHYGVSAIEGCKGFFRRSIQKNMIYTCHRDKNCVINKVTRNRCQYCRLQKCFEVGMSKESVRND [C21I]	-0.89 ± 0.34
YKPCFVCQDKSSGYHYGVSAWEGCKGFFRRSIQKNMIYTCHRDKNCVINKVTRNRCQYCRLQKCFEVGMSKESVRND [C21W]	-0.839 ± 0.17
YKPCFVCQDKSSGYHYGVSACEGCKGFFRRSIQKNMIYTCHRDKNCVIGKVTRNRCQYCRLQKCFEVGMSKESVRND [N49G]	-0.255 ± 0.05
YKPCFVCQDKSSGYHYGVSACEGCKGFFRRSIQVNMIYTCHRDKNCVINKVTRNRCQYCRLQKCFEVGMSKESVRND [K34V]	-0.145 ± 0.039
YKPCFVCQDKSSGYHYGVSACEGCKGFFRRSIQKNMIYTCHRDKNKVINKVTRNRCQYCRLQKCFEVGMSKESVRND [C46K]	-1 ± 0.26
YKPCFVCIDKSSGYHYGVSACEGCKGFFRRSIQKNMIYTCHRDKNCVINKVTRNRCQYCRLQKCFEVGMSKESVRND [Q8I]	-1.01 ± 0.34
YKPCFVCQDKSSGYHYGVSACEGCKGFFRRSIQKNMIYTCHRDKNCVINKVTRNRCQYCRLQKCFYVGMSKESVRND [E66Y]	-0.136 ± 0.085
YKPCFVCQDKSSGYHYGVSACEGCKGFFRRSIQKNMIYTCHRDKNCVINKVTRNRCQYCRLQKCFETGMSKESVRND [V67T]	-0.178 ± 0.055
YKPCFVCQDKSSGYHYGVSACEGCKGFFRRSIQKNMIYTCHRDKNCVINKVTRNRCQYCRLQKCLEVGMSKESVRND [F65L]	0.014 ± 0.036
YKPCFVCQDKSSGYHYGVSACEGCKGFFRRSIQKNMIYTCHRDKNCVINKVTRNRCQYCRLQKCDEVGMSKESVRND [F65D]	-0.423 ± 0.093
YKPCFVCQDKSSGYHYGVSACEGCKGFFRRSIQKNMIYTCHRDKNCVINKVTRNRCQYCRLQKCIEVGMSKESVRND [F65I]	0.119 ± 0.075

Variant	abundance fitness
YKPCFVCQDKSSGYHYGVSACEGCKGFFRRSIQKNMIYTCHRDKNCVINKVTRNRCQYCRLQKCQEVGMSKESVRND [F65Q]	-0.156 ± 0.057
YKPCFVCQDKSSGYHYGVSACEGCKGFFRRSIQKNMIYTCHRDKNCVINKVTRNRCQYCRLQKCFEVGFSKESVRND [M69F]	-0.406 ± 0.27
YKPCFVCQDKSSGYHYGVSACEGCKGFFRRSIQKNMIYTCHRDKNCVINKVTRNRCQYCRLQKCFEVGCSKESVRND [M69C]	-0.31 ± 0.16
YKPYFVCQDKSSGYHYGVSACEGCKGFFRRSIQKNMIYTCHRDKNCVINKVTRNRCQYCRLQKCFEVGMSKESVRND [C4Y]	-0.592 ± 0.14
YKPGFVCQDKSSGYHYGVSACEGCKGFFRRSIQKNMIYTCHRDKNCVINKVTRNRCQYCRLQKCFEVGMSKESVRND [C4G]	-0.859 ± 0.096
YKPCFVCQDKSSGYHYGVSACEGCKGFFRGSIQKNMIYTCHRDKNCVINKVTRNRCQYCRLQKCFEVGMSKESVRND [R30G]	-0.702 ± 0.074
YKPCFVCQDKSSGYHYGVSACEGCKGFFRTSIQKNMIYTCHRDKNCVINKVTRNRCQYCRLQKCFEVGMSKESVRND [R30T]	-0.707 ± 0.14
YKPCFVCQDKSSGYHYGVSACEGCKGFFRRSIQKNMIYTCHRDKNCVINKVTRNRCQYCRLQKCFEVGMGKESVRND [S70G]	-0.184 ± 0.037
YKPCFVCQDKSSGYHYGVSACEGCKGFFRRSIQKNMIYTCHRDKNCVINKVTRNRCQYCRLQKCFEVGMMKESVRND [S70M]	-0.115 ± 0.092
YKPCFVCQDKSSGYHYGVSACEGCKGFFRRSIQKNMIYTCHRDKNCVINKVTRNRCQYCRLQQCFEVGMSKESVRND [K63Q]	-0.305 ± 0.075
YKPCQVCQDKSSGYHYGVSACEGCKGFFRRSIQKNMIYTCHRDKNCVINKVTRNRCQYCRLQKCFEVGMSKESVRND [F5Q]	-0.046 ± 0.067
YKPCFVCQDKSSGYHYGVSACEGTKGFFRRSIQKNMIYTCHRDKNCVINKVTRNRCQYCRLQKCFEVGMSKESVRND [C24T]	-0.736 ± 0.22
YKPCFVCQDKSSGYHYGVSACEGCKGFFVRSIQKNMIYTCHRDKNCVINKVTRNRCQYCRLQKCFEVGMSKESVRND [R29V]	0.084 ± 0.044
YKPCFVCQDKSSGYCYGVSACEGCKGFFRRSIQKNMIYTCHRDKNCVINKVTRNRCQYCRLQKCFEVGMSKESVRND [H15C]	0.016 ± 0.1
YKPCFVCQDKSSGYHYGVSACEGCKGFARRSIQKNMIYTCHRDKNCVINKVTRNRCQYCRLQKCFEVGMSKESVRND [F28A]	-0.534 ± 0.078
YKPCFVCQDKSSGYHYGVSACEGCKGFGRRSIQKNMIYTCHRDKNCVINKVTRNRCQYCRLQKCFEVGMSKESVRND [F28G]	-0.82 ± 0.078
YKPCFVCQDKSSGYHYGVSACEGCKGFFRRSIQKNMIYTCHRDKNCVINKVTRNRCQYCRLQKCFEVGMSKEFVRND [S73F]	-0.016 ± 0.086
